One may read the Kd as the equilibrium constant for the complex coming apart. A higher Kd goes with weaker binding. A word on the KD: it is a measure of binding affinity in units of concentration. Low readings indicate higher affinity, high ones lower affinity.

The record followed here is patent publication US12006368 (SURROZEN OPERATING, dated 2024).

B1: 004S-C09 (Fab, V domains shown)
VH: QVQLVQSGAEVKKPGASVKVSCKASGYTFTNNFMHWVRQAPGQGLEWMGGFDPEDGETIYAQKFQGRVTMTRDTSTSTVYMELSSLRSEDTAVYYCARVGRGYSFDYWGQGTLVTVSS
VL: not shown
B2: 004S-B08 (Fab, V domains shown)
VH: QVQLVQSGAEVKKPGASVKVSCKASGYTFTNNFMHWVRQAPGQGLEWMGRINPNSGGTNYAQKFQGRVTMTRDTSTSTVYMELSSLRSEDTAVYYCASQNYYGSGSYPGFDYWGQGTLVNVSS
VL: not shown
B3: 004S-D08 (Fab, V domains shown)
VH: QVQLVQSGAEVKKPGSSVKVSCKASGYTFTYRYLHWVRQAPGQGLEWMGGIIPIFGTANYAQKFQGRVTITADESTSTAYMELSSLRSEDTAVYYCATHDSSGYYSFDYWGQGTLVTVSS
VL: not shown
B4: 002S-F03 (VHH)
VHH: AVQLVESGGGLVQAGGPLRLSCAASGRTSSSYAMGWFRQAPGKEREFVAAISWSGGSTYYADSVKGRFTISRDNAKNTVYLQMDSPIPEDTAVYYCAAGPIARWYRGDMDYWGKGTLVTVSS
B5: 002S-G02 (VHH)
VHH: AVQLVDSGGGLMQAGGSLRLSCAASGRTFGTWAMGWFRQAPGKEREFVAAISYNGFSTYYSDAVKGRFTISRDNAKNTMYLQMDSLIPEDTAVYYCAAGPIARWYRGDMDYWGKGTQVTVSS
B6: 002S-E02 (VHH)
VHH: QVQLVESGGGLVQPGGSLRLSCAASGFTFREYAMTWVRQSPGKRLEWVSGISRDGGRTSYSDSLKGRFTISRDNAKNTLYLQMNNLTPEDTAVYYCAPRVLVTAPSGGMDYWGKGTQVTVSS
B7: 001S-A04 mutant VHG10A (Fab, V domains shown)
VH: EVQLVQSGAEVKKPGASVKVSCKASGYTFTSYGISWVRQAPGQGLEWMGWISAYNGNTNYAQKLQGRVTMTTDTSTSTAYMELRSLRSDDTAVYYCASSKEKATYYYAMDVWGQGTTVTVSS
VL: QAVVLQEPSLSVSPGGTVTLTCGLSSGSVSTNYYPSWYQQTPGQAPRTLIYYTNTRSSDVPERFSGSIVGNKAALTITGAQPDDESVYFCLLYLGRGIWVFGGGTKLTVLG
B8: 001S-A04 mutant VLL4A (Fab, V domains shown)
VH: EVQLVQSGAEVKKPGASVKVSCKASGYTFTSYGISWVRQAPGQGLEWMGWISAYNGNTNYAQKLQGRVTMTTDTSTSTAYMELRSLRSDDTAVYYCASSKEKATYYYGMDVWGQGTTVTVSS
VL: QAVVLQEPSLSVSPGGTVTLTCGLSSGSVSTNYYPSWYQQTPGQAPRTLIYYTNTRSSDVPERFSGSIVGNKAALTITGAQPDDESVYFCLLYAGRGIWVFGGGTKLTVLG
B9: 001S-A04 mutant VHK4A (Fab, V domains shown)
VH: EVQLVQSGAEVKKPGASVKVSCKASGYTFTSYGISWVRQAPGQGLEWMGWISAYNGNTNYAQKLQGRVTMTTDTSTSTAYMELRSLRSDDTAVYYCASSKEAATYYYGMDVWGQGTTVTVSS
VL: QAVVLQEPSLSVSPGGTVTLTCGLSSGSVSTNYYPSWYQQTPGQAPRTLIYYTNTRSSDVPERFSGSIVGNKAALTITGAQPDDESVYFCLLYLGRGIWVFGGGTKLTVLG
B10: 001S-A04 mutant VLG5A (Fab, V domains shown)
VH: EVQLVQSGAEVKKPGASVKVSCKASGYTFTSYGISWVRQAPGQGLEWMGWISAYNGNTNYAQKLQGRVTMTTDTSTSTAYMELRSLRSDDTAVYYCASSKEKATYYYGMDVWGQGTTVTVSS
VL: QAVVLQEPSLSVSPGGTVTLTCGLSSGSVSTNYYPSWYQQTPGQAPRTLIYYTNTRSSDVPERFSGSIVGNKAALTITGAQPDDESVYFCLLYLARGIWVFGGGTKLTVLG
B11: 001S-A04 mutant VLY3A (Fab, V domains shown)
VH: EVQLVQSGAEVKKPGASVKVSCKASGYTFTSYGISWVRQAPGQGLEWMGWISAYNGNTNYAQKLQGRVTMTTDTSTSTAYMELRSLRSDDTAVYYCASSKEKATYYYGMDVWGQGTTVTVSS
VL: QAVVLQEPSLSVSPGGTVTLTCGLSSGSVSTNYYPSWYQQTPGQAPRTLIYYTNTRSSDVPERFSGSIVGNKAALTITGAQPDDESVYFCLLALGRGIWVFGGGTKLTVLG
B12: 001S-A04 mutant VLR6A (Fab, V domains shown)
VH: EVQLVQSGAEVKKPGASVKVSCKASGYTFTSYGISWVRQAPGQGLEWMGWISAYNGNTNYAQKLQGRVTMTTDTSTSTAYMELRSLRSDDTAVYYCASSKEKATYYYGMDVWGQGTTVTVSS
VL: QAVVLQEPSLSVSPGGTVTLTCGLSSGSVSTNYYPSWYQQTPGQAPRTLIYYTNTRSSDVPERFSGSIVGNKAALTITGAQPDDESVYFCLLYLGAGIWVFGGGTKLTVLG
B13: 001S-A04 mutant VLI8A (Fab, V domains shown)
VH: EVQLVQSGAEVKKPGASVKVSCKASGYTFTSYGISWVRQAPGQGLEWMGWISAYNGNTNYAQKLQGRVTMTTDTSTSTAYMELRSLRSDDTAVYYCASSKEKATYYYGMDVWGQGTTVTVSS
VL: QAVVLQEPSLSVSPGGTVTLTCGLSSGSVSTNYYPSWYQQTPGQAPRTLIYYTNTRSSDVPERFSGSIVGNKAALTITGAQPDDESVYFCLLYLGRGAWVFGGGTKLTVLG
B14: 001S-A04 mutant VHK2A (Fab, V domains shown)
VH: EVQLVQSGAEVKKPGASVKVSCKASGYTFTSYGISWVRQAPGQGLEWMGWISAYNGNTNYAQKLQGRVTMTTDTSTSTAYMELRSLRSDDTAVYYCASSAEKATYYYGMDVWGQGTTVTVSS
VL: QAVVLQEPSLSVSPGGTVTLTCGLSSGSVSTNYYPSWYQQTPGQAPRTLIYYTNTRSSDVPERFSGSIVGNKAALTITGAQPDDESVYFCLLYLGRGIWVFGGGTKLTVLG
B15: 001S-A04 mutant VLG7A (Fab, V domains shown)
VH: EVQLVQSGAEVKKPGASVKVSCKASGYTFTSYGISWVRQAPGQGLEWMGWISAYNGNTNYAQKLQGRVTMTTDTSTSTAYMELRSLRSDDTAVYYCASSKEKATYYYGMDVWGQGTTVTVSS
VL: QAVVLQEPSLSVSPGGTVTLTCGLSSGSVSTNYYPSWYQQTPGQAPRTLIYYTNTRSSDVPERFSGSIVGNKAALTITGAQPDDESVYFCLLYLGRAIWVFGGGTKLTVLG
B16: 001S-A04 mutant VLV10A (Fab, V domains shown)
VH: EVQLVQSGAEVKKPGASVKVSCKASGYTFTSYGISWVRQAPGQGLEWMGWISAYNGNTNYAQKLQGRVTMTTDTSTSTAYMELRSLRSDDTAVYYCASSKEKATYYYGMDVWGQGTTVTVSS
VL: QAVVLQEPSLSVSPGGTVTLTCGLSSGSVSTNYYPSWYQQTPGQAPRTLIYYTNTRSSDVPERFSGSIVGNKAALTITGAQPDDESVYFCLLYLGRGIWAFGGGTKLTVLG
B17: 001S-A04 mutant VLL2A (Fab, V domains shown)
VH: EVQLVQSGAEVKKPGASVKVSCKASGYTFTSYGISWVRQAPGQGLEWMGWISAYNGNTNYAQKLQGRVTMTTDTSTSTAYMELRSLRSDDTAVYYCASSKEKATYYYGMDVWGQGTTVTVSS
VL: QAVVLQEPSLSVSPGGTVTLTCGLSSGSVSTNYYPSWYQQTPGQAPRTLIYYTNTRSSDVPERFSGSIVGNKAALTITGAQPDDESVYFCLAYLGRGIWVFGGGTKLTVLG
B18: 001S-A04 mutant VLL1A (Fab, V domains shown)
VH: EVQLVQSGAEVKKPGASVKVSCKASGYTFTSYGISWVRQAPGQGLEWMGWISAYNGNTNYAQKLQGRVTMTTDTSTSTAYMELRSLRSDDTAVYYCASSKEKATYYYGMDVWGQGTTVTVSS
VL: QAVVLQEPSLSVSPGGTVTLTCGLSSGSVSTNYYPSWYQQTPGQAPRTLIYYTNTRSSDVPERFSGSIVGNKAALTITGAQPDDESVYFCALYLGRGIWVFGGGTKLTVLG
B19: 001S-A04 mutant VHV13A (Fab, V domains shown)
VH: EVQLVQSGAEVKKPGASVKVSCKASGYTFTSYGISWVRQAPGQGLEWMGWISAYNGNTNYAQKLQGRVTMTTDTSTSTAYMELRSLRSDDTAVYYCASSKEKATYYYGMDAWGQGTTVTVSS
VL: QAVVLQEPSLSVSPGGTVTLTCGLSSGSVSTNYYPSWYQQTPGQAPRTLIYYTNTRSSDVPERFSGSIVGNKAALTITGAQPDDESVYFCLLYLGRGIWVFGGGTKLTVLG

The first experiment concerns the target Fzd2 cysteine rich domain (CRD), C-terminally biotinylated (human, UniProt Q14332 24-155). As to the kind of experiment: BLI. On the procedure: (§1) Binding kinetics of antibody fragments to a variety of Fzd cysteine rich domain (CRD) protein targets (Fzd1, Fzd2, Fzd3, Fzd4, Fzd5, Fzd6, Fzd7, Fzd8, Fzd9 and/or Fzd10 CRDs) was determined by bio-layer interferometry (BLI) using Octet Red 96 (PALL ForteBio, Fremont, CA) instruments at 30° C., 1000 rpm with streptavidin (SA) biosensors. C-terminal biotinylated Fzd CRD recombinant protein was diluted to 20 nM in the running buffer (PBS, 0.05% Tween-20, 0.5% BSA, pH 7.2) and captured to the SA biosensor until coupling length reached 0.2 nm. Following capture of the Fzd CRD, the SA biosensor with captured biotinylated-Fzd CRD was dipped into wells containing the relevant antibody fragment at […] (0, 1.37, 4.12, 12.4, 37, 111.1, 333.3, 1000 nM) in running buffer, plus a well with only running buffer as a reference channel. […] was determined by global fitting, 1:1 binding model according to manufacturer recommended settings.
(§2) Table 1B provides clone IDs, the sequence identifier number of the antibody heavy chain fragment and/or light chain fragment, if present, for illustrative clones. In certain embodiments, the Fzd binding domain is an Fab or was derived from an Fab, so the heavy chain of Table 1B includes VH and CH1 sequence, but not CH2 or CH3 sequences. In certain embodiments, the Fzd binding domain is a VHH or sdAb® or was derived from a VHH or sdAb, so Table 1B includes the VHH domain. […] The Kd values were determined by BLI as described above. Blank entries denote that the binding to the specific Fzd receptor has not yet been determined. The entry of "n.b." indicates no binding.
(In BLI a coated tip is dipped into the sample, and binding shifts an interference pattern.)
Consider B1, for which the binding result is recorded as “no binding (tested: 1000 nM)”.

Take B2: the binding result is listed as “no binding (tested: 1000 nM)”.

As for B3, the binding result is on record as “no binding (tested: 1000 nM)”.

For the next experiment, the target named is T1, Fzd1 cysteine rich domain (CRD), C-terminally biotinylated (human, UniProt Q9UP38 101-230). As to the kind of experiment: BLI. On the procedure:
as §1, §2
As for B1, the binding result is recorded as “no binding (tested: 1000 nM)”.

As to B2, the binding result was “no binding (tested: 1000 nM)”.

Turning to B3, the binding result is reported as “no binding (tested: 1000 nM)”.

Another experiment has as its target T1, Fzd1 cysteine rich domain (CRD), …. As to the kind of experiment: BLI; **=Kd 100-2000 nM. Here is the method:
as §1, §2
B4 returned a Kd of 100 to 2000 nM.

In turn, B5 had a Kd of 100 to 2000 nM.

For B6, the Kd was in the range of 100 to 2000 nM.

The target is the same in a further experiment. The experiment in a line: BLI; *=Kd <=100 nM. Here is the method:
as §1
One antibody fragment, clone 001S-A04, was selected for alanine-scanning mutagenesis of CDRs, and the respective Fzd1 binding affinities of the various mutants were determined by Octet BLI as described in Example 1.
On to B7, for which the KD was ≤ 100 nM.

Consider B8, for which the KD is ≤ 100 nM.

For the molecule B9, the KD is ≤ 100 nM.

Turning to B10, the KD was ≤ 100 nM.

As for B11, the KD was ≤ 100 nM.

In the case of B12, the KD is ≤ 100 nM.

In the case of B13, the KD was ≤ 100 nM.

As to B14, the KD was ≤ 100 nM.

As to B15, the KD is ≤ 100 nM.

Take B16: the KD was ≤ 100 nM.

For the molecule B17, the KD was ≤ 100 nM.

With B18, the KD is ≤ 100 nM.

For the molecule B19, the KD is ≤ 100 nM.
